{
  "source": "paper PMC9308218",
  "about": "“FBXL17/spastin axis as a novel therapeutic target of hereditary spastic paraplegia” (Cell & Bioscience, 2022)",
  "molecular_target": "T1, USP20 (Ubiquitin Specific Peptidase 20) on the HuProt protein microarray (human, UniProt Q9Y2K6 1-914)",
  "T1 construct": "ubiquitin specific peptidase 20, human, spot on the HuProt array of full-length recombinant human proteins; source: bought: HuProt protein microarray (CDI Labs), recombinant",
  "T1 sequence (Q9Y2K6 whole entry)": "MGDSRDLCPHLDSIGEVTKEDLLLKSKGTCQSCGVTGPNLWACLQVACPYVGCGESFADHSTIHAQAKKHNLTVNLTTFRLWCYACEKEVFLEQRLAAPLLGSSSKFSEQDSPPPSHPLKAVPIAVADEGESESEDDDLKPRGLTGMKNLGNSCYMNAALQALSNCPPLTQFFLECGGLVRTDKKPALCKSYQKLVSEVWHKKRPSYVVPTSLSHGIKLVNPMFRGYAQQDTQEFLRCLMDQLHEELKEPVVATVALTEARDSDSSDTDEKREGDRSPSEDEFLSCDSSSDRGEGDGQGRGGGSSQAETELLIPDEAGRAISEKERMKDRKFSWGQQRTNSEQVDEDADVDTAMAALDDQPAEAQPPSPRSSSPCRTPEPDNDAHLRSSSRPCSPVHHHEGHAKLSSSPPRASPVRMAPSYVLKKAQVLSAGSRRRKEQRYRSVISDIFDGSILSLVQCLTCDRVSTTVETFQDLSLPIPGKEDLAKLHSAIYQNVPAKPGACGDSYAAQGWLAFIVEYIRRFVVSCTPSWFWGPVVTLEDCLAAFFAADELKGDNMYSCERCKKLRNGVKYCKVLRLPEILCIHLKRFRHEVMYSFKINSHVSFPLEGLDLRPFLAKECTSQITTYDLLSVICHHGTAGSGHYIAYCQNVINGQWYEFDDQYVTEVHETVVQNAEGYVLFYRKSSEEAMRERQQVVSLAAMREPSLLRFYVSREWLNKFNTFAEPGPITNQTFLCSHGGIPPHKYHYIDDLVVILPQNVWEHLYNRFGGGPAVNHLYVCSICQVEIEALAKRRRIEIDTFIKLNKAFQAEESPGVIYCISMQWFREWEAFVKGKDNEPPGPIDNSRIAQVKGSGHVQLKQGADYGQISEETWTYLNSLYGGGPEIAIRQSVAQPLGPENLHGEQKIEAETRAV",
  "assay": "peptide or protein array; HuProt human protein microarray (over 20,000 full-length recombinant human proteins); 3 μg biotinylated His-SPAST on the array for 8 h at 4 °C; detected with streptavidin-Alexa-Fluor 635",
  "conditions": "both partners purified",
  "data": [
    {"binder": "biotinylated His-SPAST-M1 (natural protein, human, UniProt Q9UBP0 1-616, looked up, biotin (biotinylated, site not stated), The methods call it His-SPAST; the results call it His-SPAST-M1; also called His-tagged SPAST protein; source: E. coli BL21 (pET28a-His-SPAST), purified (Ni-NTA)) MNSPGGRGKKKGSGGASNPVPPRPPPPCLAPAPPAAGPAPPPESPHKRNLYYFSYPLFVGFALLRLVAFHLGLLFVWLCQRFSRALMAAKRSSGAAPAPASASAPAPVPGGEAERVRVFHKQAFEYISIALRIDEDEKAGQKEQAVEWYKKGIEELEKGIAVIVTGQGEQCERARRLQAKMMTNLVMAKDRLQLLEKMQPVLPFSKSQTDVYNDSTNLACRNGHLQSESGAVPKRKDPLTHTSNSLPRSKTVMKTGSAGLSGHHRAPSYSGLSMVSGVKQGSGPAPTTHKGTPKTNRTNKPSTPTTATRKKKDLKNFRNVDSNLANLIMNEIVDNGTAVKFDDIAGQDLAKQALQEIVILPSLRPELFTGLRAPARGLLLFGPPGNGKTMLAKAVAAESNATFFNISAASLTSKYVGEGEKLVRALFAVARELQPSIIFIDEVDSLLCERREGEHDASRRLKTEFLIEFDGVQSAGDDRVLVMGATNRPQELDEAVLRRFIKRVYVSLPNEETRLLLLKNLLCKQGSPLTQKELAQLARMTDGYSGSDLTALAKDAALGPIRELKPEQVKNMSASEMRNIRLSDFTESLKKIKRSVSPQTLEAYIRWNKDFGDTTV", "values": [
      {"measurement": "binding result", "value": "binds"}
    ]}
  ]
}
